Tests used:
[1] = molecular target: biotinylated histone H3K9me3 peptide; assay: pull-down + far-Western, overlay or dot blot
[2] = molecular target: biotinylated unmodified histone H3 peptide; assay: pull-down + far-Western, overlay or dot blot

B1: GST tagged recombinant chromodomain (PfCD) of the chromodomain-containing protein PfCDP, wild type (domain or fragment)
chain: NEVFEVEKIIMARYKLNCKRKKNRKDENLDDFEFYIKWKNYDSDENTWEPFENLSPNLKGQARKVAL
Kd [1]: 38 nM
Kd [2]: 175 nM
